# Laboratory results: patent US20110076723A1, “ANTIBODY-PEPTIDE FUSED SYNERGIBODY” (SAMSUNG ELECTRONICS CO., LTD., priority 2008, published 2011)
# T1: recombinant hAng-2 (recombinant protein with His tag attached to human Ang-2; R&D Systems) (human, UniProt O15123 19-496)
# T1 construct: also called angiopoietin-2; ANGPT2
# T1 sequence (looked up): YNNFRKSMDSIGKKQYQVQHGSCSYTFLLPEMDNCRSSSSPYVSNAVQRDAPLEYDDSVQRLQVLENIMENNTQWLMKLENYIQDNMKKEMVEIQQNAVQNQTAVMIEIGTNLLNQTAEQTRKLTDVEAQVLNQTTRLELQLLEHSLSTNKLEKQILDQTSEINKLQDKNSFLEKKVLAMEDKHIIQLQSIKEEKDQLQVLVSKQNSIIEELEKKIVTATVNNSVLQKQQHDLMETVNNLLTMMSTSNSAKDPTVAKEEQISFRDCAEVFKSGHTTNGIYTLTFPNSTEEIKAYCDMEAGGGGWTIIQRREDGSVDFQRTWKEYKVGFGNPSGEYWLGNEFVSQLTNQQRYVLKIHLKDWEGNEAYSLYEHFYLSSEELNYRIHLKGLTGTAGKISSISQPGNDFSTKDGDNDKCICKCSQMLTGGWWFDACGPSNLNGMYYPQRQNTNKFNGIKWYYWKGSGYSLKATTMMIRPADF
# T2: recombinant hAng-2 (Homo sapiens, UniProt O15123)
# T2 construct: His tag; purchased R&D Systems
# T2 sequence (O15123 19-496): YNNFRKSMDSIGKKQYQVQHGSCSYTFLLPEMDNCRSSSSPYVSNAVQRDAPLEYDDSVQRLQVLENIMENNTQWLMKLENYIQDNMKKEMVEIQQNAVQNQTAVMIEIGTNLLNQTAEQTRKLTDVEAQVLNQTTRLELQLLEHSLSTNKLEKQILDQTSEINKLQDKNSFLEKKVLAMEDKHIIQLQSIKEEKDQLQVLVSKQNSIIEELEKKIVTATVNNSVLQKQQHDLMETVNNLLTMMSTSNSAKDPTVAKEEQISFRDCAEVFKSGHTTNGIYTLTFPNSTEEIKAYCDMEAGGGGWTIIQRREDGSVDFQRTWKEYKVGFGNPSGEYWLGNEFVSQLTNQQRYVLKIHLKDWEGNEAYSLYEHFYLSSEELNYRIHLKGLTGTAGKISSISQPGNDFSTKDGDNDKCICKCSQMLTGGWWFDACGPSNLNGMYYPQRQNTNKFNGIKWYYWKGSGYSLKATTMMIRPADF
# T3: recombinant VEGFR-2 protein (water soluble extracellular site of human VEGFR-2 with Fc of human IgG1 connected thereto, R&D Systems) (human), P35968
# T3 chain: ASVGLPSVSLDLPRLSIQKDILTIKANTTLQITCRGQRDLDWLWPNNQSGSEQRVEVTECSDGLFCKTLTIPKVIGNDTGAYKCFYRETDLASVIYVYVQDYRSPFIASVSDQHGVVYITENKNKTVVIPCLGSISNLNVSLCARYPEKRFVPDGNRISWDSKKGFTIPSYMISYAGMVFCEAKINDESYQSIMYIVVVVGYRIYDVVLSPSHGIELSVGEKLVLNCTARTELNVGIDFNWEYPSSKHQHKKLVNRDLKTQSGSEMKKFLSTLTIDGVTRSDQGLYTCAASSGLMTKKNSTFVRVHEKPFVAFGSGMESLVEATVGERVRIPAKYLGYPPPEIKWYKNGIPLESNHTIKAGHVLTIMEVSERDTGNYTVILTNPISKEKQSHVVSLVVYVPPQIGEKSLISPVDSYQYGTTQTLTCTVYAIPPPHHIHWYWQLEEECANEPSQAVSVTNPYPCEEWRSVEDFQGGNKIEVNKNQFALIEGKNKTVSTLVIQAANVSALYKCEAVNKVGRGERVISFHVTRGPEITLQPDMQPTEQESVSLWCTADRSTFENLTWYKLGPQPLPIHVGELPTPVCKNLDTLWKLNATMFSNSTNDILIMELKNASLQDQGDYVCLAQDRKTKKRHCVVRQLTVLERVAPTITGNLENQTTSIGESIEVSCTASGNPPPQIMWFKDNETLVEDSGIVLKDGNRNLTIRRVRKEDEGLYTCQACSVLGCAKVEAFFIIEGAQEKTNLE
# Tests used:
# [1] = molecular target: T1, recombinant hAng-2 (recombinant protein …); test: SPR, BIAcore T100; hAng-2 amine-coupled on CM5, antibody 100 to 0.78125 nM
# Protocol: (§1) The SPR method using BIAcore T100 (GE Healthcare) is used to accurately measure the affinity to the Ang-2 antigens. 20 μg/ml recombinant hAng-2 (R&D Systems) is fixed on a sensor chip CM5 (GE Healthcare) using pH4.5 acetate solution and amine coupling kit (GE Healthcare). The antibodies obtained in Section 2 above are diluted to eight different concentrations down to 0.78125 nM by diluting to ½ each time starting from 100 nM. Then the antigen/antibody affinity is measured by causing the antigens to repeatedly bind and disassociate with the antibodies fixed on the sensor chip (using pH2.2 glycine-HCl solution).
# [2] = molecular target: T2, recombinant hAng-2; test: Affinity to Ang-2 antigen by surface plasmon resonance (BIAcore T100); format: binding; details: SPR, hAng-2 on CM5 chip
# Protocol: as §1
# [3] = molecular target: T1, recombinant hAng-2 (recombinant protein …); test: competitive ELISA; antibody titrated with 1 nM hAng-2 (His) on coated hTie2-Fc
# Protocol: (§2) A competitive ELISA is performed to assess the molecular interaction of the binders. A 96-well MaxiSorp™ flat-bottom plate (Nunc) is coated with hTie2-Fc (R&D Systems), which is a fused protein including the water-soluble extracellular portion of human Tie-2 and Fc of human IgG₁ dissolved in DMEM culture solution containing 50 μg/ml bovine serum albumin (BSA). The concentration of hTie2-Fc used as a coating material is equivalent to 75% of its maximum binding concentration with 1 nM of recombinant hAng-2 (recombinant protein with His tag attached to human Ang-2; R&D Systems). Then the plate is washed five times with Phosphate Buffer Saline (PBS) containing 0.1% Tween-20 and blocked at room temperature for two hours with PBS containing 5% BSA. Each anti-Ang-2 antibodies are diluted from 100 nM by one-fourth each time with PBS containing 1% BSA and 1 nM hAng-2 and adjusted to 6.1 pM for Ang-2:Tie-2 neutralization ELISA. 100 μl of antibody/hAng-2 solutions are placed in each corresponding well and left to react at room temperature for two hours. Then the wells are washed five times with PBS containing 0.1% Tween-20, and the anti-His antibodies (GE Healthcare) are diluted to about 1:3,000 with PBS containing 1% BSA and left to react at room temperature for one hour. Afterwards, 100 μl of goat anti-mouse-IgG-HRP (Pierce) diluted with PBS containing 1% BSA to about 1:10,000 is added to each well of the plate, left to react at room temperature for one hour, and washed with PBS containing 0.1% Tween-20 five times. Lastly, 100 μl of TMB substrate (SIGMA) is added to each well of the plate to induce color reaction, and the reaction is stopped by adding 50 μl of 5N H₂SO₄ solution. The OD₄₅₀ value is read on a plate reader (Molecular Devices).
# [4] = molecular target: T1, recombinant hAng-2 (recombinant protein …); test: competitive ELISA; synergibody titrated with 1 nM hAng-2 (His) on coated hTie2-Fc
# Protocol: as §2
# The method described in Example 1, Section 3 above is used, except that, in the present example, each fused protein synergibodies are diluted from 100 nM to one-fourth each time with PBS containing 1% BSA and 1 nM hAng-2 and adjusted to 6.1 pM for Ang-2:Tie-2 neutralization ELISA.
# [5] = molecular target: T4, recombinant VEGFR-2 protein (water soluble extracellular site of human VEGFR-2 with Fc of human IgG1 … (human, UniProt P35968 20-764)); test: competitive ELISA; synergibody titrated with 1 nM VEGFR-2 on coated VEGF 165
# T4 construct: extracellular domain; Bought; not shown: Fc of human IgG1
# Protocol: Competitive ELISA is performed using the peptides synthesized above in Section 6A in order to assess the molecular interaction of the binders. […] Then the plate is washed five times with PBS containing 0.1% Tween-20, and blocked at room temperature for two hours with PBS containing 5% BSA. For VEGF:VEGFR-2 neutralization ELISA, each of the peptides synthesized in Section 6A above are diluted to one-fourth each time from 100 nM with PBS containing 1 nM VEGFR-2 and 1% BSA, and adjusted to 6.1 pM. 100 μl of peptide/VEGFR-2 solution is added to each well and the plate is left to react at room temperature for two hours. Subsequently, it is washed five times with PBS containing 0.1% Tween-20, mouse anti-VEGFR-2 antibodies (R&D Systems) is diluted to about 1:3,000 with PBS containing 1% BSA, and left to react at room temperature for one hour. Then 100 μl of goat anti-mouse-IgG-HRP (Pierce) diluted to about 1:10,000 with PBS containing 1% BSA is added to each well of the plate, left to react at room temperature for one hour, and washed five times with PBS containing 0.1% Tween-20. Lastly, 100 μl of TMB substrate (SIGMA) is added to each well of the plate to induce color reaction. The reaction is stopped by adding 50 μl of 5N H₂SO₄ solution, and the OD₄₅₀ value is read on a plate reader (Molecular Devices). Through the foregoing, the IC₅₀ value for the VEGF:VEGFR-2 binding capacity is obtained.
# The method in Example 2, Section 6B above is used, except that, in the present example, each fused protein synergibodies are diluted from 100 nM to one-fourth each time with PBS containing 1% BSA and 1nM VEGFR-2 and adjusted to 6.1 pM for VEGF:VEGF-2 neutralization ELISA.
# [6] = molecular target: T3, recombinant VEGFR-2 protein (water …); test: competitive ELISA; peptide titrated with 1 nM VEGFR-2 on coated VEGF 165
molecule,measurement,setting,value
"SAITAng-2-2 (antibody, V domains shown, Mouse monoclonal anti-Ang-2 antibody purified from hybridoma culture) VH: QVQLQQSGPELVKPGASVKMSCKASGYTFTDYVISWVKQRTGQGLEWIGEIYPGSGSTYYNEKFKGKASLTADKSSNTAYMQLSSLTSADSAVYFCVRSRGDYYAMDYWGQGTSVTVSS VL: DIQMTQSPSSLSASLGGKVTITCKASQDINNYITWYQHKPGKGPRLLIHYTSTLQPGIPSRFSGSGSGRDYSFSISNLEPEDIATYYCLQYDNLLTFGGGTKLEIK",Kd,[1],1.1 nM
same,koff,[1],0.000477 s⁻¹
same,kon,[1],433000 M⁻¹ s⁻¹
same,Off Rate,[2],0.0004769 s⁻¹
same,On rate,[2],433200 M⁻¹ s⁻¹
same,IC50,[3],1.86 nM
"Syn-Ang-VEGFR-18 (other, Chimeric (human IgG1) SAITAng-2-4 with the peptide at the C-terminus of the heavy chain; also called SAITAng-2-4 x DTN9VEGFR-2-3; not shown: human IgG1 heavy chain constant region with Fc region, from the vector; human light chain constant region, printed as 'constant region of human IgG1') heavy (part 1 of 2): QVQLQQSGAELARPGASVKLSCKASGYTFTDYYINWAKQRTGQGLEWIGEIYPGSGDTYYNEKFKGKATLTADKSSSTAYMQLSSLTSEDSAVYFCARYGYKGVYFDYWGQSTTLTVSS heavy (part 2 of 2): EAGAYWCKAWGLSPCLVT light: ENVLTQSPAIMAASLGQKVTMTCSASSSVSSSYLHWYQQKSGASPKPLIHRTSNLASGVPARFSGSGSGTSYSLTISSVEAEDDATYYCQQWSGYPFTFGAGTKLELK",IC50,[4],1.39 nM
same,IC50,[5],1.65 nM
"Syn-Ang-VEGFR-19 (other, Chimeric (human IgG1) SAITAng-2-4 with the peptide at the C-terminus of the heavy chain; also called SAITAng-2-4 x DTN10VEGFR-2-4; not shown: human IgG1 heavy chain constant region with Fc region, from the vector; human light chain constant region, printed as 'constant region of human IgG1') heavy (part 1 of 2): QVQLQQSGAELARPGASVKLSCKASGYTFTDYYINWAKQRTGQGLEWIGEIYPGSGDTYYNEKFKGKATLTADKSSSTAYMQLSSLTSEDSAVYFCARYGYKGVYFDYWGQSTTLTVSS heavy (part 2 of 2): TGSGRMCDGSGPPTNCWFT light: ENVLTQSPAIMAASLGQKVTMTCSASSSVSSSYLHWYQQKSGASPKPLIHRTSNLASGVPARFSGSGSGTSYSLTISSVEAEDDATYYCQQWSGYPFTFGAGTKLELK",IC50,[4],1.28 nM
same,IC50,[5],1.31 nM
"Syn-Ang-VEGFR-20 (other, Chimeric (human IgG1) SAITAng-2-4 with the peptide at the C-terminus of the heavy chain; also called SAITAng-2-4 x DTN11VEGFR-2-5; not shown: human IgG1 heavy chain constant region with Fc region, from the vector; human light chain constant region, printed as 'constant region of human IgG1') heavy (part 1 of 2): QVQLQQSGAELARPGASVKLSCKASGYTFTDYYINWAKQRTGQGLEWIGEIYPGSGDTYYNEKFKGKATLTADKSSSTAYMQLSSLTSEDSAVYFCARYGYKGVYFDYWGQSTTLTVSS heavy (part 2 of 2): PGSQGYCHLNMRYQWICDSE light: ENVLTQSPAIMAASLGQKVTMTCSASSSVSSSYLHWYQQKSGASPKPLIHRTSNLASGVPARFSGSGSGTSYSLTISSVEAEDDATYYCQQWSGYPFTFGAGTKLELK",IC50,[4],1.35 nM
same,IC50,[5],1.38 nM
TGSDDLCYTFPCMHY (modifications not checked) [DTN6VEGFR-2-1],IC50,[6],56.7 nM
"SAITAng-2-3 (antibody, V domains shown, Mouse monoclonal anti-Ang-2 antibody purified from hybridoma culture) VH: DVQLVESGGGLVQPGGSRKLSCAASGFTFSSFGMHWVRQAPEKGLEWVAYISSDSSTIYYADTVKGRFTISRDNPKNTLFLQMTSLRSEDTAMYYCAREGGYDDYYAMDYWGQGTSVTVSS VL: DIQMTQSPASQSASLGESVTITCLASQTIGTWLAWYQQKPGKSPQLLIYAATSLADGVPSRFSGSGSGTKFSFKISSLQAEDFVSYYCQQLYSIPLTFGGGTKLEIK",Kd,[1],0.603 nM
same,koff,[1],0.000302 s⁻¹
same,kon,[1],501000 M⁻¹ s⁻¹
same,Off Rate,[2],0.0003023 s⁻¹
same,On rate,[2],501200 M⁻¹ s⁻¹
same,IC50,[3],0.822 nM
TGSGRMCDGSGPPTNCWFT (modifications not checked) [DTN10VEGFR-2-4],IC50,[6],46.9 nM
PGSQGYCHLNMRYQWICDSE (modifications not checked) [DTN11VEGFR-2-5],IC50,[6],50.7 nM
EAGKETCGYEWQYCPRP (modifications not checked) [DTN8VEGFR-2-2],IC50,[6],49.5 nM
EAGAYWCKAWGLSPCLVT (modifications not checked) [DTN9VEGFR-2-3],IC50,[6],61.9 nM
